Target: the molecule itself
Experiment: two-hybrid; yeast; pJZ4-G clones in strain RFY231 mated with pHZ5-NRT clones in strain Y309; beta-galactosidase activity in Miller units (Yeast beta-Galactosidase Assay Kit, Pierce)

B1: Wag31T73EMtb (phosphomimetic Wag31 of Mycobacterium tuberculosis) (natural protein)
chain: MPLTPADVHNVAFSKPPIGKRGYNEDEVDAFLDLVENELTRLIEENSDLRQRINELDQELAAGGGAGVTPQAEQAIPAYEPEPGKPAPAAVSAGMNEEQALKAARVLSLAQDTADRLTNTAKAESDKMLADARANAEQILGEARHTADATVAEARQRADAMLADAQSRSEAQLRQAQEKADALQADAERKHSEIMGTINQQRAVLEGRLEQLRTFEREYRTRLKTYLESQLEELGQRGSAAPVDSNADAGGFDQFNRGKN
notes: also called phosphomimetic Wag31T73EMtb; source: yeast two-hybrid fusion
- fold interaction (beta-galactosidase activity) against wild-type Wag31Mtb with itself: ~2 fold
